Reference: patent US7244430

Target: whole inactivated rabies virus
Assay: phage ELISA, coated whole inactivated rabies virus

Binder | OD 492 nm [OD 492 nm]
SC04-353 (scFv) scFv: EVQLVQSGGGVVQPGRSLRLSCAASGFTFSNYAMHWVRQAPGKGLEWVAVISYDGGNKYYADSVKGRFTMSRDNSKNTLYLQMNSLRAEDTAVYYCARDFWSGYSMVDSYYYYMDVWGKGTTVTVSSGTGGSGGTGSGTGGSTETTLTQSPGTLSLSPGERATLSCRASQSVSNTFLAWYQQKPGQAPRLLIYGASSRATGIPDRFSGSGSGTDFTLTISRLEPEDFAAYYCQQYGSSLTFGPGTKVDIKR | 0.057
SC04-374 (scFv) scFv: QVTLKESGPTLVKPTQTLTLTCTFSGFSLSTSGVGVGWIRQPPGKALEWLAVIYWNDDKLYRPSLKSRLTITKDTSKNQVVLTMTKMDPVDTATYYCAHRHRYYDISGYYRLFSDAFDIWGQGTMVTVSSGTGGSGGTGSGTGGSTQSVVTQPPSVSGAPGQRVTISCTGSSSNIGAGYDVHWYQQLPGTAPKLLIYGNSNRPSGVPDRFSGSKSGTSASLAITGLQAEDEADYYCQSYDSSLSGSVFGGGTKLTVLG | 0.056
SC04-361 (scFv) scFv: EVQLVQSGAEVKKPGESLKISCKASGFSFSTYWIGWVRQMPGKGLEWMGIIYPADSDTRYSPSFQGQVTISADKSISTAYLQWSSLKASDTAMYYCARLRGPYYDFWNGYRETHDAFNVWGQGTMVTVSSGTGGSGGTGSGTGGSTDVVMTQSPDSLAVSLGERATINCKSSQNILDNSDNKNFLAWYQQKPGQPPKLLIYWASARESGVPDRFSGSGSGTDFTLTISSLQAEDVALYYCQQYYNTPITFGQGTRLEIKR | 0.059
